How the values were obtained:
[1] = target: recombinant prostasin enzyme (Homo sapiens, UniProt Q16651); assay: Incubation with recombinant prostasin enzyme, LC/MS analysis of incapacitation byproduct; format: biochemical
Procedure: This is not observed in absence of the enzyme incubation.
Then in FIG. 10, incubation of the drug alone with the prostasin enzyme can be analyzed by LC/MS for the byproduct of incapacitation (the alkylation of the decoy yielding a 1-methylpiperazine-one).
The drug could be tested in similar ways as the other compounds.
The strategy of this example can be generalized for any peptide based PROTAC for TrkA or any other target.

[2] = Cell uptake by imaging of conjugated dancyl fluorophore; format: cell-based; conditions: data not shown
Source text: Compound 9 was shown efficacious in these experiments.

Chain of recombinant prostasin enzyme (Q16651 33-343, species assumed): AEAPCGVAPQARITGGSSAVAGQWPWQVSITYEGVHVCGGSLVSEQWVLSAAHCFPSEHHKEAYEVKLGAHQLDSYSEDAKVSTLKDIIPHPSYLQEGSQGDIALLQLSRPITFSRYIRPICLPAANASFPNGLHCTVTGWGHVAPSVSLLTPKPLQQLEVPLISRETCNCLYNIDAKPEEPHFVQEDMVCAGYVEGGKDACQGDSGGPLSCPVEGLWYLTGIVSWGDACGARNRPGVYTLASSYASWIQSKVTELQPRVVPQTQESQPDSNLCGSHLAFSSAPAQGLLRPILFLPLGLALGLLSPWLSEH

| Sequence | incapacitation byproduct seen by LC/MS ([1]; absence of the enzyme incubation) | incapacitation byproduct seen by LC/MS ([1]; incubated with recombinant prostasin enzyme) | cell uptake [2] |
| --- | --- | --- | --- |
| LFLGQARGGRRRRPPP | not observed | independent activator byproduct |  |
| RRARRPRGRQAR |  |  | demonstrated for cell uptake |

Reference: US20260108617A1, “AUTO-TUNING DRUG REGULATOR CONSTRUCTIONS” (priority 2023, published 2026)
